Assay [1] has as its target T1, PD-1 Fc fusion protein (UniProt Q15116 25-167, limits assumed).
T1 construct: Antigen immobilised on the CM5 chip in all PD-1 SPR assays; also called PD-1 fused to human Fc region; PD-1-Fc antigen; not shown: human Fc region
The assay can be described thus: SPR (Biacore), PD1-Fc immobilised on CM5, 1:1 Langmuir model with mass transfer. As to the method: PD1-Fc antigen and reference antigen was immobilized on Biacore CM5 surface. […] Kinetics data was evaluated for 1:1 model: Langmuir with mass transfer.
(In general: In SPR one partner is held on a chip, and binding of the other changes the refractive index at the surface.)

Assay [2] has as its target T2, TGF-β1 (UniProt P01137 279-390). The assay can be described thus: cell-based or functional assay.
The target in assay [3] is T2, TGF-β1. The assay is described as follows: cell-based or functional assay. This is another data set of the same source.

T2 sequence (P01137 279-390 limits assumed): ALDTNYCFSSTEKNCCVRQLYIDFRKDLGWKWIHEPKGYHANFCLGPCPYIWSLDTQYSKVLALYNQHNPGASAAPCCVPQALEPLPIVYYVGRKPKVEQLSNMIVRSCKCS
T1 sequence (Q15116 25-167 limits assumed): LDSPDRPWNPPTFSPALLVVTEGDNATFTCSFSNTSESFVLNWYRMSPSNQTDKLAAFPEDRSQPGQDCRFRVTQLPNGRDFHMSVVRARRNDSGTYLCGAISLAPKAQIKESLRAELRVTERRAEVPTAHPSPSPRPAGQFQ

B1: Anti-PD1 (nVL1-nVH3).IgG4 (antibody, V domains shown)
VH: QVQLVESGGGVVQPGRSLRLDCKASGITFSNSGMHWVRQAPGKGLEWVAVIWYDGSKRYYADSVKGRFTISRDNSKNTLFLQMNSLRAEDTAVYYCATNNDYWGQGTLVTVSS
VL: EIVMTQSPATLSLSPGERATLSCRASQSVSSYLAWYQQKPGQAPRLLIYDASNRATGIPARFSGSGSGTDFTLTISSLEPEDFAVYYCQQYNNWPRTFGQGTKVEIK
notes: IgG4
In assay [1], B1 displayed a Kd of 0.0148 nM.

B2: Anti-PD1 (nVL1-nVH3).IgG4 (S108P) (antibody, V domains shown)
VH: QVQLVESGGGVVQPGRSLRLDCKASGITFSNSGMHWVRQAPGKGLEWVAVIWYDGSKRYYADSVKGRFTISRDNSKNTLFLQMNSLRAEDTAVYYCATNNDYWGQGTLVTVSS
VL: EIVMTQSPATLSLSPGERATLSCRASQSVSSYLAWYQQKPGQAPRLLIYDASNRATGIPARFSGSGSGTDFTLTISSLEPEDFAVYYCQQYNNWPRTFGQGTKVEIK
As for B2, the affinity in assay [1], expressed as Kd, was 0.0141 nM.

B3: Anti-PD1 (VL5-VH6).IgG4-Linker12-TGFbRII (antibody)
heavy: QVQLVESGGGVVQPGRSLRLDCKASGITFSNSGMHWVRQAPGKGLEWVAVIWYDGSKRYYADSVKGRFTISRDNSKNTLFLQMNSLRAEDTAVYYCATNDDYWGQGTLVTVSSASTKGPSVFPLAPCSRSTSESTAALGCLVKDYFPEPVTVSWNSGALTSGVHTFPAVLQSSGLYSLSSVVTVPSSSLGTKTYTCNVDHKPSNTKVDKRVESKYGPPCPSCPAPEFLGGPSVFLFPPKPKDTLMISRTPEVTCVVVDVSQEDPEVQFNWYVDGVEVHNAKTKPREEQFNSTYRVVSVLTVLHQDWLNGKEYKCKVSNKGLPSSIEKTISKAKGQPREPQVYTLPPSQEEMTKNQVSLTCLVKGFYPSDIAVEWESNGQPENNYKTTPPVLDSDGSFFLYSRLTVDKSRWQEGNVFSCSVMHEALHNHYTQKSLSLSPGKDPVLEREDKVTTSKNPGSIPPHVQKSVNNDMIVTDNNGAVKFPQLCKFCDVRFSTCDNQKSCMSNCSITSICEKPQEVCVAVWRKNDENITLETVCHDPKLPYHDFILEDAASPKCIMKEKKKPGETFFMCSCSSDECNDNIIFSEEYNTSNPD
light: not shown
As for B3, the “IC50, TGF-β1 neutralization activity (HEK-Blue TGF-β reporter cells)” value (“IC50, TGF-β1 neutralization activity” for short) in assay [2] was determined as 0.0027 nM.

B4: Anti-PD1 (VL5-VH6).IgG4-Linker8-TGFbRII (antibody)
heavy: QVQLVESGGGVVQPGRSLRLDCKASGITFSNSGMHWVRQAPGKGLEWVAVIWYDGSKRYYADSVKGRFTISRDNSKNTLFLQMNSLRAEDTAVYYCATNDDYWGQGTLVTVSSASTKGPSVFPLAPCSRSTSESTAALGCLVKDYFPEPVTVSWNSGALTSGVHTFPAVLQSSGLYSLSSVVTVPSSSLGTKTYTCNVDHKPSNTKVDKRVESKYGPPCPSCPAPEFLGGPSVFLFPPKPKDTLMISRTPEVTCVVVDVSQEDPEVQFNWYVDGVEVHNAKTKPREEQFNSTYRVVSVLTVLHQDWLNGKEYKCKVSNKGLPSSIEKTISKAKGQPREPQVYTLPPSQEEMTKNQVSLTCLVKGFYPSDIAVEWESNGQPENNYKTTPPVLDSDGSFFLYSRLTVDKSRWQEGNVFSCSVMHEALHNHYTQKSLSLSPGKDPGSGGSVPLGSGGSNPGSIPPHVQKSVNNDMIVTDNNGAVKFPQLCKFCDVRFSTCDNQKSCMSNCSITSICEKPQEVCVAVWRKNDENITLETVCHDPKLPYHDFILEDAASPKCIMKEKKKPGETFFMCSCSSDECNDNIIFSEEYNTSNPD
light: not shown
As for B4, the “IC50, TGF-β1 neutralization activity” value in assay [2] turned out to be 0.0012 nM.

B5: Anti-PD1 (VL5-VH6).IgG4-Linker10-TGFbRII (antibody)
heavy: QVQLVESGGGVVQPGRSLRLDCKASGITFSNSGMHWVRQAPGKGLEWVAVIWYDGSKRYYADSVKGRFTISRDNSKNTLFLQMNSLRAEDTAVYYCATNDDYWGQGTLVTVSSASTKGPSVFPLAPCSRSTSESTAALGCLVKDYFPEPVTVSWNSGALTSGVHTFPAVLQSSGLYSLSSVVTVPSSSLGTKTYTCNVDHKPSNTKVDKRVESKYGPPCPSCPAPEFLGGPSVFLFPPKPKDTLMISRTPEVTCVVVDVSQEDPEVQFNWYVDGVEVHNAKTKPREEQFNSTYRVVSVLTVLHQDWLNGKEYKCKVSNKGLPSSIEKTISKAKGQPREPQVYTLPPSQEEMTKNQVSLTCLVKGFYPSDIAVEWESNGQPENNYKTTPPVLDSDGSFFLYSRLTVDKSRWQEGNVFSCSVMHEALHNHYTQKSLSLSPGKDPGVLEREDVPTTSYPNPGSIPPHVQKSVNNDMIVTDNNGAVKFPQLCKFCDVRFSTCDNQKSCMSNCSITSICEKPQEVCVAVWRKNDENITLETVCHDPKLPYHDFILEDAASPKCIMKEKKKPGETFFMCSCSSDECNDNIIFSEEYNTSNPD
light: not shown
Regarding B5, in assay [2], the “IC50, TGF-β1 neutralization activity” value stood at 0.0019 nM.

B6: Anti-PD1 (nVL1-nVH3).IgG4-TGFbRII (antibody)
heavy: QVQLVESGGGVVQPGRSLRLDCKASGITFSNSGMHWVRQAPGKGLEWVAVIWYDGSKRYYADSVKGRFTISRDNSKNTLFLQMNSLRAEDTAVYYCATNNDYWGQGTLVTVSSASTKGPSVFPLAPCSRSTSESTAALGCLVKDYFPEPVTVSWNSGALTSGVHTFPAVLQSSGLYSLSSVVTVPSSSLGTKTYTCNVDHKPSNTKVDKRVESKYGPPCPSCPAPEFLGGPSVFLFPPKPKDTLMISRTPEVTCVVVDVSQEDPEVQFNWYVDGVEVHNAKTKPREEQFNSTYRVVSVLTVLHQDWLNGKEYKCKVSNKGLPSSIEKTISKAKGQPREPQVYTLPPSQEEMTKNQVSLTCLVKGFYPSDIAVEWESNGQPENNYKTTPPVLDSDGSFFLYSRLTVDKSRWQEGNVFSCSVMHEALHNHYTQKSLSLSPGKGGGGSGGGGSIPPHVQKSVNNDMIVTDNNGAVKFPQLCKFCDVRFSTCDNQKSCMSNCSITSICEKPQEVCVAVWRKNDENITLETVCHDPKLPYHDFILEDAASPKCIMKEKKKPGETFFMCSCSSDECNDNIIFSEEYNTSNPD
light: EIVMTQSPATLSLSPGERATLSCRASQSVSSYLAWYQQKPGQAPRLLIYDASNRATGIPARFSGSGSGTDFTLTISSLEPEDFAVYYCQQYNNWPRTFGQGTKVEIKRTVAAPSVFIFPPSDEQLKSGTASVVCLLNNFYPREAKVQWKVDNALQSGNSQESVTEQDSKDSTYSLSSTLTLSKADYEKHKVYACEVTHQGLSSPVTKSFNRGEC
For the molecule B6, the “IC50, inhibition of TGF-β1 induced reporter gene activity (HEK-Blue TGF-β cells, SEAP)” value in assay [3] was determined as 0.0107 nM. The Kd in assay [1] is 0.0277 nM.

B7: Anti-PD1 (nVL1-nVH7).IgG4-TGFbRII (antibody)
heavy: QVQLVESGGGVVQPGRSLRLDCKASGFTFSNSGMHWVRQAPGKGLEWVAVIWYDGSKRYYADSVKGRFTISRDNSKNTLFLQMNSLRAEDTAVYYCATNNDYWGQGTLVTVSSASTKGPSVFPLAPCSRSTSESTAALGCLVKDYFPEPVTVSWNSGALTSGVHTFPAVLQSSGLYSLSSVVTVPSSSLGTKTYTCNVDHKPSNTKVDKRVESKYGPPCPSCPAPEFLGGPSVFLFPPKPKDTLMISRTPEVTCVVVDVSQEDPEVQFNWYVDGVEVHNAKTKPREEQFNSTYRVVSVLTVLHQDWLNGKEYKCKVSNKGLPSSIEKTISKAKGQPREPQVYTLPPSQEEMTKNQVSLTCLVKGFYPSDIAVEWESNGQPENNYKTTPPVLDSDGSFFLYSRLTVDKSRWQEGNVFSCSVMHEALHNHYTQKSLSLSPGKGGGGSGGGGSIPPHVQKSVNNDMIVTDNNGAVKFPQLCKFCDVRFSTCDNQKSCMSNCSITSICEKPQEVCVAVWRKNDENITLETVCHDPKLPYHDFILEDAASPKCIMKEKKKPGETFFMCSCSSDECNDNIIFSEEYNTSNPD
light: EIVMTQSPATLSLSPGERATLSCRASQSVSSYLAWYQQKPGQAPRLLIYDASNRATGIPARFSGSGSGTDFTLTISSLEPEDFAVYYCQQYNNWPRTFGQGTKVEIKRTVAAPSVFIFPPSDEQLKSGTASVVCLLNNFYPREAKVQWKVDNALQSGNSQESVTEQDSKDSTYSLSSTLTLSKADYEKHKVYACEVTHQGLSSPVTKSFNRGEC
For the molecule B7, the “IC50, inhibition of TGF-β1 induced reporter gene activity (HEK-Blue TGF-β cells, SEAP)” value in assay [3] was determined as 0.0151 nM. This molecule also came in with a Kd in assay [1] of 0.147 nM.

B8: Anti-PD1 (VL5-VH6).IgG4-Linker7-TGFbRII (antibody)
heavy: QVQLVESGGGVVQPGRSLRLDCKASGITFSNSGMHWVRQAPGKGLEWVAVIWYDGSKRYYADSVKGRFTISRDNSKNTLFLQMNSLRAEDTAVYYCATNDDYWGQGTLVTVSSASTKGPSVFPLAPCSRSTSESTAALGCLVKDYFPEPVTVSWNSGALTSGVHTFPAVLQSSGLYSLSSVVTVPSSSLGTKTYTCNVDHKPSNTKVDKRVESKYGPPCPSCPAPEFLGGPSVFLFPPKPKDTLMISRTPEVTCVVVDVSQEDPEVQFNWYVDGVEVHNAKTKPREEQFNSTYRVVSVLTVLHQDWLNGKEYKCKVSNKGLPSSIEKTISKAKGQPREPQVYTLPPSQEEMTKNQVSLTCLVKGFYPSDIAVEWESNGQPENNYKTTPPVLDSDGSFFLYSRLTVDKSRWQEGNVFSCSVMHEALHNHYTQKSLSLSPGKDPGSGSVPLGSGSNPGSIPPHVQKSVNNDMIVTDNNGAVKFPQLCKFCDVRFSTCDNQKSCMSNCSITSICEKPQEVCVAVWRKNDENITLETVCHDPKLPYHDFILEDAASPKCIMKEKKKPGETFFMCSCSSDECNDNIIFSEEYNTSNPD
light: not shown
As to B8, the “IC50, TGF-β1 neutralization activity” value in assay [2] worked out at 0.0011 nM.

The Kd is the concentration at which binding is half-saturated. Low values mean a tighter complex, high ones a looser complex.

These data come from US20240141045A1 (PRECIGEN, published 2024).
